The assay has as its target receptor-binding domain (RBD) of SARS-CoV-2 prototype strain (SARS-CoV-2 prototype strain, UniProt P0DTC2). The assay is described as follows: SPR. On the technique in general: SPR reads the build-up and loss of mass on a sensor chip optically.

Among the data in publication PMC11554226 (2024) are Kd values, retold here.

The term Kd denotes the equilibrium constant for the complex coming apart.

B1: Tnb04-1 R50Q (nanobody-Fc) (Fc fusion)
chain: EVQLVESGGGLVQPGGSLRLSCAASGSISTLNVMGWYRQAPGKQRELVAQITLDGRPEYADSVKGRFTITKDGAQSTLYLQMNNLKPEDTAVYFCKLENGGFFYYWGQGTQVTVSS
Take B1: the Kd turned out to be 0.471 nM.

B2: Tnb04-1 R56S (nanobody-Fc) (Fc fusion)
chain: EVQLVESGGGLVQPGGSLRLSCAASGSISTLNVMGWYRQAPGKQRELVARITLDGSPEYADSVKGRFTITKDGAQSTLYLQMNNLKPEDTAVYFCKLENGGFFYYWGQGTQVTVSS
The molecule B2 gave a Kd of 0.535 nM.
